From the supplement of paper PMC10567573
± gives the standard deviation.

Experiment: protein stability index of a GFP-peptide fusion (GPS, HEK-293T) (PSI 1-6); higher = more stable
[1] = treatment: DMSO, c terminus: a fixed tail appended
[2] = treatment: MLN4924 1 uM, 8 h, c terminus: a fixed tail appended
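Also: 24-mer peptide tiles fused after GFP, lentivirally expressed, FACS-sorted into six equal bins by GFP/DsRed ratio, decoded by Illumina sequencing, PSI is the read-weighted mean bin number.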

Sequence | protein stability index [1] | protein stability index [2] | protein stability index (treatment: DMSO, c terminus: native) | protein stability index (treatment: MLN4924 1 uM, 8 h, c terminus: native)
HAVVEVEDVPLAAKLVDLPCVIES [TAF7L] | 3.86 ± 0.28 | 4.03 ± 0.17 | – | –
GDTSATESGDEVPVELYTAFQHTP [KMT2E] | 4.97 ± 0.18 | 5.04 ± 0.17 | – | –
TQQNRKLTDFYPVRRSSRKSKAEL [KMT5A] | 2.97 ± 0.89 | 3.76 ± 0.29 | – | –
VFFAYAQLGYLLFGTQVENFSTFI [PKD2L1] | 3.33 ± 0.054 | 2.71 ± 0.72 | – | –
EQVFSLGDGVSGGFFGIRDSSFL [ZBED1] | – | – | 3.36 ± 0.31 | 3.61 ± 0.27
SKATFSRNIMNLIDIVAIIPYFIT [KCNA3] | 3.16 ± 0.52 | 3.32 ± 0.76 | – | –
EEEAGQTSIEPSKSSIIPFRALKR [ZER1] | 4.87 ± 0.26 | 5.09 ± 0.16 | – | –
SGSDVLDNVAYARAFNTDHQTQLL [RAD51] | 3.66 ± 0.21 | 3.73 ± 0.12 | – | –
LLYDDLYDDDIDDEDEEEEDADCY [UBE2R2] | 4.26 ± 0.18 | 4.41 ± 0.27 | – | –
ATFHVGGGPAQNAPHQQPPAPPSD [TFE3] | 4.86 ± 0.16 | 4.84 ± 0.26 | – | –
QSQSLRDRARRFEEALRKNTEEQL [MTUS2] | 4.88 ± 0.28 | 5.06 ± 0.18 | – | –
EEKERIGQFVFARDAKAAMAGRLM [AASDHPPT] | 3.36 ± 0.19 | 3.43 ± 0.32 | – | –
TLGASSLREERGHPLHPRHRKAVH [C6orf223] | 4.54 ± 0.25 | 4.5 ± 0.098 | – | –
PSSNNKELFYRVNYIGTKNVIETC [NSDHL] | 2.7 ± 0.2 | 2.55 ± 0.18 | – | –
PGIDRPGMLCSFRIPGAWSCAWSL [DCAF4] | 3.32 ± 0.45 | 2.96 ± 0.61 | – | –
LQLFHQDGTFSPVTLALFFVLYFL [CLCN6] | 2.45 ± 0.64 | 2.13 ± 0.47 | – | –
ECSNIPLSQPQQGEAMLANFKPRG [GAN] | 3.5 ± 0.9 | 3.97 ± 0.34 | – | –
ISQYEDDLPPPPADPVLDLPLPPP [APBB1IP] | 4.93 ± 0.18 | 4.913 ± 0.048 | – | –
ARKRKNRRLKQAKEEAQAEIEQYR [ATP6V1G1] | 5.03 ± 0.38 | 5.13 ± 0.32 | – | –
LTCSLSFLLCARSLLRGFLLQNEF [MCOLN1] | 3.34 ± 0.44 | 2.93 ± 0.46 | – | –
TYGRRAKGHNTPKDIAHFWELGGG [DYNC2LI1] | 2.84 ± 0.11 | 3.07 ± 0.18 | – | –
EGIKVEDLLFIVDTMLEEVENKEK [CEP70] | 3.07 ± 0.27 | 3.03 ± 0.42 | – | –

Sequence | protein stability index [1] | protein stability index [2] | protein stability index (treatment: DMSO, c terminus: native) | protein stability index (treatment: MLN4924 1 uM, 8 h, c terminus: native)
FSDGEKCRREAFRRLGNGVSDDLS [PHTF1] | 4.05 ± 0.13 | 3.82 ± 0.17 | – | –
TALGDKKSLEGDLEDLKDQIAQLE [LMNB1] | 5.21 ± 0.24 | 5.27 ± 0.24 | – | –
SCSLVLEHQPDNIKALFRKGKVLA [FKBP8] | 2.76 ± 0.15 | 2.68 ± 0.26 | – | –
DQCKINKQIYNLIHLDPRTREGFT [FEM1B] | 2.2 ± 0.35 | 2.52 ± 0.38 | – | –
VDQYLALPDVSLGRYAYVRGGGDP [MCOLN1] | 3.19 ± 0.26 | 3.03 ± 0.4 | – | –
TVSIMEPGETRRNSYPRADTGLFS [TRIM29] | 3.81 ± 0.2 | 3.64 ± 0.37 | – | –
SCTIIFLASIFQLAMWTTALLHQA [TMEM175] | 2.5 ± 0.2 | 3.17 ± 0.54 | – | –
GARYEVTVVSVRGFEESEPLTGFL [TNXB] | 2.53 ± 0.79 | 2.38 ± 0.59 | – | –
VRTLSEPPDKGEEQVNFCESSNDF [ZBTB22] | 5.14 ± 0.25 | 5.26 ± 0.39 | – | –
TTVPDGPTQLRALNLTEGFAVLHW [TNXB] | 2.18 ± 0.098 | 2.05 ± 0.065 | – | –
NGKTIEMDTQFTIRARELQNIYKC [IQUB] | 2.57 ± 1.1 | 2.8 ± 0.19 | – | –
QPPDMASALTDRTSRAPSTYTYTS [RSPH3] | 4.39 ± 0.17 | 4.51 ± 0.15 | – | –
RTPLHYAAANCHFHCIETLVTTGA [ANKRD44] | 2.36 ± 0.57 | 2.44 ± 0.5 | – | –
FEFQVRVCDSCYDSIKDEDRTSLA [WDFY1] | 2.78 ± 0.23 | 3 ± 0.61 | – | –
PERIYQGSSGSYFVKDPQGRIIAV [PI4K2A] | 2.78 ± 0.25 | 2.74 ± 0.46 | – | –
GDQEGPRPARSTLDELLGRGMATK [FBF1] | 4.62 ± 0.27 | 4.73 ± 0.11 | – | –
IVADILLYVVIPTRRSTAEAFQIV [SPNS1] | 2.97 ± 0.34 | 3.1 ± 0.18 | – | –
ESKIREHLEKKGPQVRDWSHYFKI [KRT18] | 2.82 ± 0.26 | 2.67 ± 0.28 | – | –
TWRLPDVSEAGGSGRLSASWEPLS [FCHO1] | 3.38 ± 0.13 | 3.24 ± 0.26 | – | –
RLVLPIAYEFNPELVLVSAGFDAA [HDAC6] | 2.3 ± 0.57 | 2.4 ± 0.2 | – | –
FTDPFFIVETLCIIWFSFELVVRF [KCNA1] | 3.26 ± 0.13 | 3.18 ± 0.69 | – | –
ADLELSLPECLEYEEEFDYETESE [GNAS] | 5.41 ± 0.24 | 5.47 ± 0.16 | – | –
